The labels stand for the following.
B1: Compound No. 248: [D-Tyr1,Phe(3Cl) 3,AzaGly7,Arg(Me)9]MS10 (peptide)
peptide: [dY]N[Phe(3-Cl)]NSF[azaGly]L[Arg(Me)]F-NH2
modifications: N-terminus assumed
SMILES: CNC(=N)NCCC[C@H](NC(=O)[C@H](CC(C)C)NC(=O)NNC(=O)[C@H](Cc1ccccc1)NC(=O)[C@H](CO)NC(=O)[C@H](CC(N)=O)NC(=O)[C@H](Cc1cccc(Cl)c1)NC(=O)[C@H](CC(N)=O)NC(=O)[C@H](N)Cc1ccc(O)cc1)C(=O)N[C@@H](Cc1ccccc1)C(N)=O
B2: Compound No. 285: [D-Tyr1,Pya(2) 3,AzaGly7,Arg(Me)9]MS10 (peptide)
peptide: [dY]N[2Pal]NSF[azaGly]L[Arg(Me)]F-NH2
modifications: N-terminus assumed
SMILES: CNC(=N)NCCC[C@H](NC(=O)[C@H](CC(C)C)NC(=O)NNC(=O)[C@H](Cc1ccccc1)NC(=O)[C@H](CO)NC(=O)[C@H](CC(N)=O)NC(=O)[C@H](Cc1ccccn1)NC(=O)[C@H](CC(N)=O)NC(=O)[C@H](N)Cc1ccc(O)cc1)C(=O)N[C@@H](Cc1ccccc1)C(N)=O
B3: Compound No. 275: des(1-2)-Acetyl-[Arg3,AzaGly7,Arg(Me)9]MS10 (peptide)
peptide: Ac-RNSF[azaGly]L[Arg(Me)]F-NH2
SMILES: CNC(=N)NCCC[C@H](NC(=O)[C@H](CC(C)C)NC(=O)NNC(=O)[C@H](Cc1ccccc1)NC(=O)[C@H](CO)NC(=O)[C@H](CC(N)=O)NC(=O)[C@H](CCCNC(=N)N)NC(C)=O)C(=O)N[C@@H](Cc1ccccc1)C(N)=O
B4: Compound No. 276: des(1-2)-Acetyl-[Thr3,AzaGly7,Arg(Me)9]MS10 (peptide)
peptide: Ac-TNSF[azaGly]L[Arg(Me)]F-NH2
SMILES: CNC(=N)NCCC[C@H](NC(=O)[C@H](CC(C)C)NC(=O)NNC(=O)[C@H](Cc1ccccc1)NC(=O)[C@H](CO)NC(=O)[C@H](CC(N)=O)NC(=O)[C@@H](NC(C)=O)[C@@H](C)O)C(=O)N[C@@H](Cc1ccccc1)C(N)=O
B5: Compound No. 251: [D-Tyr1,Pya(3) 3,AzaGly7,Arg(Me)9]MS10 (peptide)
peptide: [dY]N[3Pal]NSF[azaGly]L[Arg(Me)]F-NH2
modifications: N-terminus assumed
SMILES: CNC(=N)NCCC[C@H](NC(=O)[C@H](CC(C)C)NC(=O)NNC(=O)[C@H](Cc1ccccc1)NC(=O)[C@H](CO)NC(=O)[C@H](CC(N)=O)NC(=O)[C@H](Cc1cccnc1)NC(=O)[C@H](CC(N)=O)NC(=O)[C@H](N)Cc1ccc(O)cc1)C(=O)N[C@@H](Cc1ccccc1)C(N)=O
B6: Compound No. 145: des(1-2)-Fmoc-[Arg(Me)9]MS10 (peptide)
peptide: Fmoc-WNSFGL[Arg(Me)]F-NH2
SMILES: CNC(=N)NCCC[C@H](NC(=O)[C@H](CC(C)C)NC(=O)CNC(=O)[C@H](Cc1ccccc1)NC(=O)[C@H](CO)NC(=O)[C@H](CC(N)=O)NC(=O)[C@H](Cc1c[nH]c2ccccc12)NC(=O)OCC1c2ccccc2-c2ccccc21)C(=O)N[C@@H](Cc1ccccc1)C(N)=O

Square brackets hold non-standard residues; d marks the D form. Primed or numbered codes have the meaning given here. Ends that are not written are not given here. * marks the point of attachment. Phe(3-CF3) = N[C@@H](Cc1cccc(C(F)(F)F)c1)C(=O)O; Phe(3,4-F2) = N[C@@H](Cc1ccc(F)c(F)c1)C(=O)O; Phe(3-Cl) = N[C@@H](Cc1cccc(Cl)c1)C(=O)O; Phe(4-CN) = N#Cc1ccc(C[C@H](N)C(=O)O)cc1; Phe(4-Cl) = N[C@@H](Cc1ccc(Cl)cc1)C(=O)O; Phe(2-Cl) = N[C@@H](Cc1ccccc1Cl)C(=O)O; Phe(3-F) = N[C@@H](Cc1cccc(F)c1)C(=O)O; Phe(4-F) = N[C@@H](Cc1ccc(F)cc1)C(=O)O; Phe(2-F) = N[C@@H](Cc1ccccc1F)C(=O)O; Arg(Me) = CNC(=N)NCCC[C@H](N)C(=O)O; Fmoc = O=C(OCC1c2ccccc2-c2ccccc21)*; 2Pal = N[C@@H](Cc1ccccn1)C(=O)O; 3Pal = N[C@@H](Cc1cccnc1)C(=O)O; Cha = N[C@@H](CC1CCCCC1)C(=O)O; Arg(Et)′ = not defined here; Dab = NCC[C@H](N)C(=O)O; azaGly = NNC(=O)O

T1 sequence (Q969F8 whole entry L364H): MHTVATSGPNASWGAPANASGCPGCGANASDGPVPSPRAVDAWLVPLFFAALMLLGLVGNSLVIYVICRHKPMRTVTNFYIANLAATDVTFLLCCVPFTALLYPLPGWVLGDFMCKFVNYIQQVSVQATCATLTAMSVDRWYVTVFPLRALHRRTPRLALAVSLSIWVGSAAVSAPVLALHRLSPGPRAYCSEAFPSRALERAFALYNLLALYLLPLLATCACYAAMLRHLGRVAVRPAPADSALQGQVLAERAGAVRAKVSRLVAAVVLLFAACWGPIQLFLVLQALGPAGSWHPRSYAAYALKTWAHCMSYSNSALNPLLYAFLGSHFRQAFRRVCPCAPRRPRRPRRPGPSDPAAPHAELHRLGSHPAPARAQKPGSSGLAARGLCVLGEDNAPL

One experiment addresses T1, human OT7T175 (metastin receptor) (human, UniProt Q969F8 1-398). The experiment is described as follows: cell-based or functional assay.
On to [dY]NFNSF[azaGly]L[Arg(Me)]F-NH2 [Compound No. 244: [D-Tyr1,Phe3,AzaGly7,Arg(Me)9]MS10], for which the “intracellular Ca ion level-increasing activity (FLIPR)” value is 1 specific activity to metastin (1-54).
For the molecule B1, the “intracellular Ca ion level-increasing activity (FLIPR)” value is 2 specific activity to metastin (1-54).
[dY]N[Phe(2-Cl)]NSF[azaGly]L[Arg(Me)]F-NH2 [Compound No. 247: [D-Tyr1,Phe(2CL) 3,AzaGly7,Arg(Me)9]MS10]: the “intracellular Ca ion level-increasing activity (FLIPR)” value was 1 specific activity to metastin (1-54).

The target of the next experiment is T1, human OT7T175 (metastin receptor). The experiment can be described thus: FMAT competition with Cy-5-labeled metastin (40-54), hOT7T175-expressed CHO cells. The method, then:
h0T7T175-Expressed CHO cells were cultured in MEM-α medium (nucleic acid-free) containing 10% dialyzed serum. The medium was removed and the adherent cells were washed with PBS. Then, PBS containing 5 mM EDTA was added and the cells were scraped from a flask with a cell scraper. […] To each well of a 96-Well Black Clear Bottom Plate (Applied Biosystems, Inc.), 10 μL of assay buffer containing 1% dimethylsulfoxide was added to examine total binding, 10 μL of 10 μM non-labeled peptide (having the same amino acid sequence as that of the labeled one) solution diluted with assay buffer to examine non-specific binding, and 10 μL of a test compound diluted with assay buffer to examine the binding inhibition activity of the test compound, respectively. Furthermore, 90 μL each of the cell suspension was dispensed to each well. […] The specific binding is a value obtained by subtracting the non-specific binding from the total binding.
Usually IC50 stands for the concentration that inhibits the measured activity by half. For B2, the IC50 came to 40 nM.
As to B3, the IC50 amounted to 410 nM.
The molecule B4 gave an IC50 of 480 nM.
On the same count and under the same terms, the figure for YNWNSFGLR[Phe(4-F)]-NH2 [Compound No. 61: [Phe(4F)10]MS10] is 13 nM; for B5 it is 87 nM.
Turning to [dY]NWNSFGL[Arg(Et)′]F-NH2 [Compound No. 192: [D-Tyr1,Arg(Et)9]MS10], the IC50 came out at 530 nM.
The molecule B6 gave a half-maximal inhibitory concentration (IC50) of 120 nM.
In turn, [dY][dN][Cha]NSF[azaGly]L[Arg(Me)]F-NH2 [Compound No. 283: [D-Tyr1,D-Asn2,Cha3,AzaGly7,Arg(Me)9]MS10] came in with an IC50 of 0.69 nM.
For YNWNSFGL[Dab]F-NH2 [Compound No. 313: [Dab9]MS10], the IC50 is 690 nM.
With YNWNSFGL[Arg(Me)]F-NH2 [Compound No. 82: [Arg(Me)9]MS10], the IC50 was found to be 4.1 nM.
On to YNWNSFGLR(Et)F-NH2 [Compound No. 220: [Arg(Et)9]MS10], for which the IC50 turned out to be 330 nM.
The molecule [dY]NWNSFGL[Arg(Me)]F-NH2 (also: Gly7-Leu8 bond reduced (CH2NH)) [Compound No. 307: [7Ψ8,CH2NH,D-Tyr1,Arg(Me)9]MS10] returned an IC50 of 64 nM.
In turn, YNWNSFGLR[Phe(3,4-F2)]-NH2 [Compound No. 198: [Phe(3,4F2)10]MS10] showed an IC50 of 170 nM.
Same read-out and setting: the figure for YNWNSFGLR[Phe(4-Cl)]-NH2 [Compound No. 130: [Phe(4Cl)10]MS10] is 42 nM; for {D‑Glucuronyl}-NSF[azaGly]L[Arg(Me)]F-NH2 [Compound No. 328: des(1-3)-D-Glucuronyl-[AzaGly7,Arg(Me)9]MS10] it is 470 nM; for [dY]N[dW]NSFGL[Arg(Me)]F-NH2 [Compound No. 142: [D-Tyr1,D-Trp3,Arg(Me)9]MS10] it is 26 nM.
In turn, [dW]NSFGL[Arg(Me)]F-NH2 [Compound No. 223: des(1-2)-[D-Trp3,Arg(Me)9]MS10] yielded an IC50 of 760 nM.
Molecule YNWNSF[azaGly]L[Arg(Me)]F-NH2 (also: Tyr1-Asn2 bond reduced (CH2NH)) [Compound No. 299: [1Ψ2,CH2NH,AzaGly7,Arg(Me)9]-MS10] returned an IC50 of 1.2 nM.
The same measure, in the same setting: the figure for YNWNSFGLR[Phe(2-F)]-NH2 [Compound No. 19: [Phe(2F)10]MS10] is 8.6 nM.
On the same count and under the same terms, the figure for [dY]NWNSFGL[Arg(Me)]F-NH2 (also: Phe6-Gly7 bond reduced (CH2NH)) [Compound No. 308: [6Ψ7, CH2NH,D-Tyr1,Arg(Me)9]MS10] is 350 nM; for [dY]N[Cha]NS[Cha]GL[Arg(Me)]F-NH2 [Compound No. 181: [D-Tyr1,Cha3,6,Arg(Me)9]MS10] it is 19 nM.
Still for that read-out and setting: the figure for [dY]N[dW]NSF[azaGly]LR(Me)F-NH2 [Compound No. 236: (D-Tyr1,D-Trp3,AzaGly7,Arg(Me)9]MS10] is 42 nM.
Take YNWNSFGLR[Phe(3-F)]-NH2 [Compound No. 197: [Phe(3F)10]MS10]: the IC50 was found to be 170 nM.
With YNWNSFGLR[Phe(3-CF3)]-NH2 [Compound No. 200: [Phe(3CF3)10]MS10], the IC50 was 340 nM. Against the preceding molecule, the IC50 is about 2-fold higher.
Molecule YNWNSFGLRX (Pya(3)10; C-terminal amide) [Compound No. 60: [Pya(3)10]MS10] showed an IC50 of 170 nM. This IC50 lies about 2-fold lower than the previous one.
Molecule YNWNSFGLR[Phe(4-CN)]-NH2 [Compound No. 77: [Phe(4CN)10]MS10] gave a half-maximal inhibitory concentration (IC50) of 7.4 nM. Compared with the last molecule, the IC50 is about 23-fold lower.
Consider [dY]NFNSF[azaGly]L[Arg(Me)]F-NH2 [Compound No. 244: [D-Tyr1,Phe3,AzaGly7,Arg(Me)9]MS10], for which the IC50 amounted to 77 nM.
Take B1: the IC50 was 58 nM.
As for [dY]N[Phe(2-Cl)]NSF[azaGly]L[Arg(Me)]F-NH2 [Compound No. 247: [D-Tyr1,Phe(2CL) 3,AzaGly7,Arg(Me)9]MS10], the IC50 was 45 nM. The IC50 values of the last two molecules are within 1.5-fold of each other.
Molecule [dY]NWNSF[azaGly]L[Arg(Me)][Phe(4-F)]-NH2 [Compound No. 318: [D-Tyr1,AzaGly7,Arg(Me)9,Phe(4F)10]MS10] displayed an IC50 of 0.99 nM.
